Experimental data from the nanobody polyreactivity screen of Harvey et al. (2022).

Assay: yeast display, Sf9 membrane polyspecificity reagent, FACS + sequencing; frameworks hold sequencing errors
Summary of the method: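 Genes from sorted yeast were amplified by colony PCR, read by MiSeq 2 × 250 sequencing and filtered on CDR length. These cells carried a synthetic nanobody library in Saccharomyces cerevisiae BJ5465 and were sorted by FACS into low and high (top ~1%) gates on anti-HA and streptavidin fluorescence. Polyreactivity is labelled according to the gate of origin.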

| Sequence | polyreactivity (PSR sort gate) |
| --- | --- |
| QVQLVESGGGLVQAGGSLRLSCAASGSISRFNTMGWYRQAPGKERELVAAITVSGGSTYYADSVKGRFTISRDNAKNTVYLQMNSLKPEDTAVYYCAKEAWRYRLNFRYNYWGQGTQVTVSS | low polyreactivity |
| QVQLVESGGGLVQAGGSLRLSCAASGSISSKNAMGWYRQPPGKERQFDAVISGTGGSTYYADSVKGRFTISRDNAKNTVYLQMNSLKPEDTAVYYCAAAASSIVSYGYTWTYGYWGLGTQVTVSS | low polyreactivity |
| QVQLVESGGGLVQAGGSLRLSCAASGSISTNYAMGWYRQAPGKERELVAAISSSGGSTYYADSVKGRFTISRDNAKNTVYLQMNSLKPEDTAVYYCRYKFGYWGQGTQVTVSS | high polyreactivity |
| QVQLVESGGGLVQAGGSLRLSCAASGSISVYNAMGWYRQAPGKVRELVAAISWSGGRTSYADSVKGRFTISRDHAKNTVYLQMNSLKPEDTAVYYCAADELTGLWDEDYWGPGTQVTVSS | low polyreactivity |
| QVQLVESGGGLVQAGGSLRLSCAASGSISWVYAMGWYRQAPGKERELVAAISNSGGSTYYADSVKGRFTISRDNAKNTVYLQMNSLKPEDTAVYYCAADGYFYYSAFWASPYEYWGQGTQVTVSS | high polyreactivity |
| QVQLVESGGGLVQAGGSLRLSCAASGSISYYNAMGWYRQAPGKERELVAAITYSAGGTYYADSVKGRFTISRDNAKNTVYLQMNSLKPEDTAVYYCAADAYKHVAYGGVYWYYYWGLGTQVTVSS | high polyreactivity |
| QVQLVESGGGLVQAGGSLRLSCAASGSISYYNAMGWYRQAPGKERELVATITDSGGSTYYADSVKGRFTISRDNAKNTVYLQMNSLKPEDTAVYYWAVDYSEWYSIYEYWGQGTQVTVSS | low polyreactivity |
| QVQLVESGGGLVQAGGSLRLSCAASGSIVAGNAMGWYIQAPGKEREMVAAITWRSGRTYYADSVKGRFTISRDNAKNTVNLQMNSLKPVDTAVYYCARGRYGYTAPVRRWYFRYDYWGQGTQVTVSS | high polyreactivity |
| QVQLVESGGGLVQAGGSLRLSCAASGSIVDNRGWYRQAPGKERELVAAISSSGDSTYYADSVKGRFTISRDNAKNTVYLQMNSLKPEDTAVYYCAADFYYYKKQYDYWGQGTQVTVSS | low polyreactivity |
| QVQLVESGGGLVQAGGSLRLSCAASGSIVGYAMGWYRQAPGKERELVAAISSGGSTNYADSVKGRFTISRDNAKNTVYLQMNSLKPEDTAVYYCAKSWRWRANLRGYYWGQGTQVTVSS | high polyreactivity |
| QVQLVESGGGLVQAGGSLRLSCAASGSIVRSYAMGWYRQAPGKERELVASITDGTITNYADSVKGRFTISRDNAKNTVYLQMISLKPDDTAVYYCAAGTLAHAYVVRPIEMDYWGQGTQVTVSS | low polyreactivity |
| QVQLVESGGGLVQAGGSLRLSCAASGSIVSAYVMGWYRQAPGKERELVAAITRSGGSTYYADSVKGRFTISRDNAKNTVYLQMNSLKPEDTAVYYCAADRRWFAYWFDYWGQGTQVTVSS | low polyreactivity |
| QVQLVESGGGLVQAGGSLRLSCAASGSIVVPYTMGWYRQAPGKEMELVAAINSSDDSTFYADSVKGRFTISRENAKNTVYIKMNSLKPEDTAVYYCNATGYARWYTGDYWGQGTQVTVSS | low polyreactivity |
| QVQLVESGGGLVQAGGSLRLSCAASGSIVYYNAMGWYRQAPGKERELVASISNGGSTDYADSVKGRFTISRDNAKNTVYLQMNSLKPEDTAVYSCNAKQSYRSEYDYWGQGTQVTVSS | low polyreactivity |
| QVQLVESGGGLVQAGGSLRLSCAASGSIYGFYAKGWYRQAPAKESELVAAIDSGDSSNYADSVKGRFTISRDNAKNTVYLQMKSLIPEDTAVYYWNAEAWWYFCFDYWGQGTQVTVSS | low polyreactivity |
| QVQLVESGGGLVQAGGSLRLSCAASGSIYGRYVMGWYRQSPGKERELVATISSGGSTYYADSVKGRFTISRDNAKNTVYLQMNSLKPEDTAVYYCAASYSRFVDWIGDPGYDYWGQGTQVTVSS | low polyreactivity |
| QVQLVESGGGLVQAGGSLRLSCAASGSIYGYYVMGWNRQAPGKERELVAAISRSGGSTYYADSVKGRFTISRDNAKNTFYLQMNSLKPEDTGVYYCAASFAVRYPRLDYWGQGTQVTVSS | high polyreactivity |
